From the DeepSol protein solubility set

Experiment: soluble on expression in E. coli; label from the status in PepcDB or PDB records
For “MGSDKIHHHHHHMKTRYTYGGDEHVYVEIDDEMSLDAFFIALSLSKLVREANIPGVTEICPANASFEVRFDPDVIAPDEMMARIRELEGAAKAQEKRLDTRIIEIPVFYEDPWTHETLMRFRERHQDPSGTDLDYAARINGYDDAAAFIEAHHSQPWFVSMVGFVSGLPFLYQLVERQKQLEVPKYLRPRTDTPKLTVGYGGCFSCIYSVRGAGGYQMFGITPMPIFDPEQKISYLKDFMVFFRPGDIVKWKPIDRAEYDAITAQVEAGSYVPKIAEVAFDLDAFNKDMTGFNAKLMEALNDA”, the “soluble on expression in E. coli” value was “not soluble”.
In the case of “MGSDKIHHHHHHMKTTLAERLKTARTAQGLSQKALGDMIGVSQAAIQKIEVGKASQTTKIVELSNALHIRPEWLANGGGPMHSDRVVRSLQESSIPPTSKWGTVSAWDNTTKLSEDEVEVPFLKDIEFACGDGRIQSEDYNGFKLRFSKATLRKVGANTDGSGVLCFPAAGDSMEPIIPDGTTVAVDTNNKRIIDGKLYAIAQEGSGNDKLKRIKQLYRKPGGLLVIHSFNRDADEEAYESEVEIIGRVFWYSVLL”, the “soluble on expression in E. coli” value was “not soluble”.
With “MGSDKIHHHHHHMKVCVGIIGLGRIGHRFGISPQGDPLSHSEGYAQIPNVTVVLGVDPDPEACKNFLQRFSQAQVYSSLKDVPDGLHLEVVSVCSPTHLHAQGVIAALAWRPRVILCEKPLAVNVAEAEIMLAACSAQGCILITNYSRRWTPMLQALKNLTNQDDGLGTPIGACLRYNGGLLHNGTHWIDMLLALFGSVSCTYRLEKLSVAQDDAAESIALSWNSGLTAYLIAVRGTGCSIGEGELWGTGGMLRYSAGGGQVTWQTAQPSQWSGFQELDQAKIICEAGLKGHILGAVTEAVQLAKIGGQPTCSGADGVLALQVVEMARNNKFLIK” the “soluble on expression in E. coli” value was “not soluble”.
For “MGSDKIHHHHHHMKVEITVSEDRMQAYVTLRKEGSSELPLTKEELLNALLSAGINHGIKEEIIEDLARSPVYNTPVLVAEGTPPVDGEDGRVELLKKIEFSSHEGEKIDLREIPAKQRVIVRKGETIARIIPPTPGKEGMDVFGNPVKPKPGRVPEYHLGYNVATKNNEIIATKSGILVIEPNGTIHVYDTLEVDNVDYSTGNIDFPGKVVVKGDVKPDFVVKAQEDITVKGVIEAATVISFNGSITAGGIKGRGKAFVKAKKTVKAVFIESAEVEAEEVQVEKNIENSAVKAINVVVSGKGGSIRGGITIAQVKVETYFLGSPIGVKTRVEVGVDPEINEKIKLLSAQISLDRENVQKLTKLLVELRKLQGMLKDKFPPDKEALLNKVNNTLINLRDSIQKNEGELKRLKEIAEEMAKNASVVVKEVVYSGVEIVMFERVFRVEKELAKAVFYYRDGEIRVGGYSA”, the “soluble on expression in E. coli” value was “not soluble”.
In the case of “MGSDKIHHHHHHMKVFTEKIPNIPWEERPEGYTGPVWRYSKNPIIGRNPVPKGARVFNSAVVPYNGEFVGVFRIDHKNTRPFLHFGRSKDGINWEIEPEEIQWVDVNGEPFQPSYAYDPRVVKIEDTYYITFCTDDHGPTIGVGMTKDFKTFVRLPNAYVPFNRNGVLFPRKINGKYVMLNRPSDNGHTPFGDIFLSESPDMIHWGNHRFVLGRSSYNWWENLKIGAGPYPIETSEGWLLIYHGVTLTCNGYVYSFGAALLDLDDPSKVLYRSRYYLLTPEEEYETVGFVPNVVFPCAALCDADTGRVAIYYGAADTHVALAFGYIDEIVDFVKRNSM”, the “soluble on expression in E. coli” value was “soluble”.
With “MGSDKIHHHHHHMKVFVTGATGFIGASIARELLKDGCHVRVLARPGSDRRNLDGLDVEVCEGDLCSPESLDRGVKGCEVLYHAAADYRLWTRNPAAMYAANVEGTRHVLDAALRHGVSRVVYTSSVGTLGNPGDGTPGTEATPVTFADMVGDYKKSKFLAEREAETFLARGLPLVIVNPSTPVGPHDVKPTPTGKIIVDFLNRAMPAYLDTGLNIIDVEDCAQGHILAAQHGRIGEKYILGHENLTLRQIFSLLETVTGLAAPKVRLPYLPILAAAYANEALSRITGREPLIPLAGVQMARKFMYFDSSKAVKELGLPQRPAVEALGRAVEWFRANGYVR” the “soluble on expression in E. coli” value was “not soluble”.
For “MGSDKIHHHHHHMKVTTISIDLAKNVFQVLGMDCHAKQVFNKRLNRTQLTEFMLQQPNCDVVFEACYSSHYWGRKFLAMGHNVKLIPAQHVTPFVRGSKNDNNDTMAIYEASFRPNIRFVPVKTEEQQEILMLHRIRERLVKEKTACTNQIRGVLVDFGICFAQGYKAFEVAIWDIINDASQRPIIKLMANDFWGEYQSVNTRLDRINTLIKKLIERDPNGKILLSIPGVGPIIASAFVASIGRGQAFNTAKELGVWLGLTPKQFASGHRSVNGSITKRGNGYLRKQLIHGARAVVSHASKKQDDLNLWIMQLRSRKSICSTVVATAHRLARLIWILLQKQVPYVPQYAANQGVNHGTC”, the “soluble on expression in E. coli” value was “not soluble”.
In the case of “MGSDKIHHHHHHMKVVFLICNPAAGGGRAGKIWNRVEDLLKKHGIDHKFAFTERPGHAMEISKKAFKEGYRRIAAFGGDGTVNEMVNGIFLNGYDLREVVFGWIPFGSGKDWARTIGVPLEIEEAIKMLKDGKEFVQDLGVGEYEKASGEIEKRAFVNVAGLFFDGFVTYRTNLLKRKNRVSYFSRIFSSIIEYDPPTARIQIDEKVWEKRVFSMNVGICKYNGGGMNQLPHAVPDDGLLAVTVINDIGKLRILANLHRVFNGKLLEHPGVEGYQAKKVVVEFQRDEPVEFDGESFWAKKIFFSIIPGVIRVLVKK”, the “soluble on expression in E. coli” value was “not soluble”.
For “MGSDKIHHHHHHMKYKNLFFDLDDTIWAFSRNARDTFEEVYQKYSFDRYFDSFDHYYTLYQRRNTELWLEYGEGKVTKEELNRQRFFYPLQAVGVEDEALAERFSEDFFAIIPTKSGLMPHAKEVLEYLAPQYNLYILSNGFRELQSRKMRSAGVDRYFKKIILSEDLGVLKPRPEIFHFALSATASALRESLMIGDSWEADITGAHGVGMHQAFYNVTERTVFPFQPTYHIHSLKELMNLL”, the “soluble on expression in E. coli” value was “not soluble”.
In the case of “MGSDKIHHHHHHMKYTELLQLQTFFSRFKKIDFIKRINDNILELSFDRERFIFDLTRAMSAIYTAKFNAKNYNAPFDFMLKKYFSNAFIKEVKVLEGNRILCFSVKANKAYKSYESKIYFEFTGKNTNVILTDEKDLIIEALRHIDKSYRVVKPNVILESLKPYKMDENFEEIKDFADYFSRKFTSIYESKIKQIKNLKLAQVDKKIQNLQELFSSLDEENSLLLKALEYRKRADVLFANLSVLKDYEREFKLDDFEGKELEFKLEFNPKQSANLYYKNAKKLEQKAKNLNIQRQNLKEKLDFTLSLKELLLQAKSEIELEILLPKKNSKKNQDHKQEDLVANFYFNEFKICVGKNEKGNEFLLKNAKKDDLWLHVRDIPSAHTLIVSNKQKISLDVIEFAARLCVSFSKLKKGSYWVDYTLKNFVKVQQKAFVNYTNFKSINITKD”, the “soluble on expression in E. coli” value was “not soluble”.
In the case of “MGSDKIHHHHHHMLAASMVDLARRLGVSSVHVTFPGGDEYEGLGEAGYLQRLGSQYHWTNPGYQSFDDFLGQLSSRKRKQIRKERDAVARTGIRLSTLVGGDVKARHWDVFHAFYQAVVDRKWGRAYVSRAFFEELSASALADSVVLVWAEDGGEPLGAAFNMLGGDTLYGRTWGGGRHVDFLHFEACYYRALDFAIAQGLARVEAGAQGEHKVSRGYLPNATYSAHWIADSRLAEPVARYLVHERAMVTEDMASQTEEGPFRKG”, the “soluble on expression in E. coli” value was “not soluble”.
For “MGSDKIHHHHHHMLAKRIIACLDVKDGRVVKGTNFENLRDSGDPVELGKFYSEIGIDELVFLDITASVEKRKTMLELVEKVAEQIDIPFTVGGGIHDFETASELILRGADKVSINTAAVENPSLITQIAQTFGSQAVVVAIDAKRVDGEFMVFTYSGKKNTGILLRDWVVEVEKRGAGEILLTSIDRDGTKSGYDTEMIRFVRPLTTLPIIASGGAGKMEHFLEAFLAGADAALAASVFHFREIDVRELKEYLKKHGVNVRLEGL”, the “soluble on expression in E. coli” value was “soluble”.
For “MGSDKIHHHHHHMLASSDLPYRKMITWAGFYQDYYLVDINTGRKLPLLTQQPSDSDPSLSGDGKFVVYYQQGHVYLYDIAQGRRTNLTQSLKVSFADEDHDYPSNAPGYGFGPWLKDDAGILVYDKFDVWQFNTASKTGFALTAGQGRAQKIQYRLEGLVDNPDEPTTLAYNATVLLHGYSDKTKADGFYQATLGEAGVKTLMEGEYKLTVLGRSKDTDTLVFSKERFDLFPDLYTASYQAPQQAVKQTDLDKQRQAFNWSQAELVHWTNGDGKPLDGVLIKPTNYQAGERYPVLVYYYELMTDRLHAFPQMKVNHRPNFAWYVNNGYALFLPDIRFDIGYPGASSVQTLTSGVQKLIDMGVADANAIGLQGHSWSGYQTAFAITQTKMFKAAVAGAPVANMTSAYNGIRHGTGIARQFQYETGQSRIGASLFAAPQKYIENSPVFYADRIKTPLMIMFGDKDDAVPWEQGVEMYLAMRRAGKDVVFLQYEDEPHHLKKYPNKLDYSIRMMEYFDHYLKGKPAPAWLSQGEAYVEYKADDE”, the “soluble on expression in E. coli” value was “not soluble”.
With “MGSDKIHHHHHHMLDITMFSKADSVKGQGVGSAYLELMRLLRTHWQDEFNIKVNRYGRSAVSHYHTVNPMFYLSTFMPNRGRKIGYVHFLPETLEGSLKLPRPFQMIFNRYLISFYKRMDHIVVVNPTFIPKLEAYHIKRADVTYIPNFVSKREFYEMTKAKQLRLRQQYGYDQNKFMIIGTGQIQDRKGVPDFITLAKQNPDIQFVWAGGFSFGRITDGYQELKQVVDNPPANLSFPGIVPREKLVDYYNMADLFLLPSYNELFPMSVLEAFSCGTPVLLRDLDLYRAIIDGYYQAASDVDDMQRQIDQLSHNPAGLQFLHDKAVLAAQD” the “soluble on expression in E. coli” value was “not soluble”.
With “MGSDKIHHHHHHMLELLEPIAIFTHVARAGSFSAAARRLGISKSKVSTQVADLEHRLGVQLIQRTTRSLSLTEAGHLLYLQGEELLRDAEQAIASVHNLNDATRGVLKVGISQSFGVMHIIPALPSFMAKHPELELQVSLLDHKVDVVSEGLDLLLTMSEQLPLGMVARPLMKCQFLLVASPGYIAQHGEPTRPEQLVDHNCLVYQGEWHEHSMWQFKKGDDYCEIGVSGNFRVDNAPALKSAAISGLGVVYLASYLMEDEITKGTLVPLLKDWQLTHHLPLQAVYPRRKHLAPKVSSFIEFIKDHIGTPPYWDAPYVELFSKRQ” the “soluble on expression in E. coli” value was “not soluble”.
For “MGSDKIHHHHHHMLERRDKEITDLKRRVANMVVVGKISHVDHKNARYRVKTGNLVSDWIPDTQARAGKTRSYEGRDVGEQVVVVSSSGDLSQGVIVGSIHTDANQAADKGNLHKTLYPDGTTIEYDDEQNSYALHLTSGGKFSLTISDGVSIKGDGKKLELQAAEGIKIISQGDLSLSAEKNIALKAGGSVSLHSDDGIALHSSEGVSIHSSDLKHNGTNIGNSHVHGGVSPGGSMTGGPN”, the “soluble on expression in E. coli” value was “not soluble”.
With “MGSDKIHHHHHHMLGFRALAKPGAISMWVPQYSHQTQPVYLMIADALEQDIESGRLAEGDRLPTLKDLAEALNVTPGTVGRAYDEAAKRGLVAGEVGRGTFVRQLRQPLPAPSVPTPVAGESSQIDLSIIKPNDAHMSEWLGTAISELAASSDLGQVLDYVTEGGHTSHKQAGATWIQRWLPDARWQQVVLTAGAQHGLLVAISSLSKSDDVVLCESLCYPGIISLAHSLGRRLRGVAMDEHGLIPEALRAACLEHRPSLLVCVTTHQNPTNSIMPPARRQAIAEIAREFDLFIVDDDIYGFLEPSPDYKPLAAYAPERSVYLTSLSKSVLPALRIGYLYAPPQTLSRLSSMVRSSVWMPSPLMAQLASNLINSGKADQLVRMQQQEAAARQHMAREILGQYKIRSQPHSFHIWLELPEPWTSDEFANLARDNGVTVVSGSQFLPERSHATSGVRIALMAPSRQELGFALTKLASLLDSPEPRLFY” the “soluble on expression in E. coli” value was “not soluble”.
In the case of “MGSDKIHHHHHHMLIKLNDYEKNITQKIKDLKNASGSHSPSIFTMAEQIPELNIKIDSCFLSNPYATALFLRYLKEELIDGQKLRSVLEFYPSQNSIIAKTVADFIGIDPKNVFIGNGAIEIIQAVMHNFVGKKIIVNIPTFSSYYEFAKSETNVVYYQLSKEDNYNLNIEHYLNFVKNENPDSVVLINPNNPDGGYINYEKLRYILSELKYVKNIIIDESFIHFAYENKDYNGINIEYLFKEFHNTIIIKSMSKDFGVAGIRIGYAIMSEDKIRGLLKNGYLWNSSGLSEYFLRLYVRKNFFDEYDKVRREYIQETQTFFRKLSGIKQFKVYPSMANFALVELLDGSSSTDFVAKMLIKYGIYMRTCNDKIGLEGEFIRIASRTLEENDMVLKSICDVFKE”, the “soluble on expression in E. coli” value was “not soluble”.
